Test results published in the supplement of paper PMC9112550, “Optimization of the antimicrobial peptide Bac7 by deep mutational scanning” (BMC Biology, 2022).

The sequences below were run on Escherichia coli TOP10 (assay: shrunken log2 fold change of peptide-encoding DNA abundance (4.5 h post-induction vs induction); higher = less antimicrobial activity (less host growth inhibition)). Settings: time post-induction: 4.5 h; library: site-saturation at positions 5, 18, 19, 20.
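Further: peptides expressed intracellularly from a pBAD plasmid library in pooled LB shake-flask culture, induced with 0.3% L-arabinose, DNA abundance read by NGS, three biological replicates, DESeq2 with apeglm shrinkage.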

Row | Sequence | shrunken log2 fold change
1 | RRIRWRPPRLPRPRPRPFHCPRP | -0.026
2 | RRIRMRPPRLPRPRPRPEAAPRP | 3.45
3 | RRIRIRPPRLPRPRPRPNYPPRP | -0.565
4 | RRIRCRPPRLPRPRPRPRPCPRP | 0.339
5 | RRIRYRPPRLPRPRPRPMYQPRP | -0.124
6 | RRIRRRPPRLPRPRPRPENWPRP | 0.153
7 | RRIRGRPPRLPRPRPRPTLIPRP | 0.337
8 | RRIRSRPPRLPRPRPRPEAEPRP | 0.841
9 | RRIRPRPPRLPRPRPRPVPYPRP | -0.253
10 | RRIRTRPPRLPRPRPRPLAPPRP | 0.263
11 | RRIRKRPPRLPRPRPRPHLVPRP | 0.0297
12 | RRIRHRPPRLPRPRPRPMKPPRP | -0.0628
13 | RRIRLRPPRLPRPRPRPTAEPRP | 0.16
14 | RRIRERPPRLPRPRPRPEGGPRP | 0.361
15 | RRIRPRPPRLPRPRPRPYPVPRP | -0.247
16 | RRIRMRPPRLPRPRPRPITEPRP | -0.012
17 | RRIRLRPPRLPRPRPRPSAMPRP | -0.347
18 | RRIRMRPPRLPRPRPRPVGTPRP | 0.477
19 | RRIRRRPPRLPRPRPRPTGIPRP | 0.872
20 | RRIRCRPPRLPRPRPRPTVQPRP | 0.0608
21 | RRIRYRPPRLPRPRPRPGMWPRP | 0.234
22 | RRIRGRPPRLPRPRPRPYRRPRP | -0.00129
23 | RRIRRRPPRLPRPRPRPFWHPRP | -0.0292
24 | RRIRARPPRLPRPRPRPIGQPRP | 0.34
25 | RRIRCRPPRLPRPRPRPSENPRP | -0.154

Row | Sequence | shrunken log2 fold change
26 | RRIRVRPPRLPRPRPRPFCNPRP | 0.0823
27 | RRIRKRPPRLPRPRPRPLSEPRP | 0.251
28 | RRIRCRPPRLPRPRPRPYVLPRP | -0.903
29 | RRIRGRPPRLPRPRPRPRCTPRP | 0.892
30 | RRIRVRPPRLPRPRPRPKTHPRP | -0.0994
31 | RRIRCRPPRLPRPRPRPVHGPRP | 0.267
32 | RRIRYRPPRLPRPRPRPDEYPRP | -0.0128
33 | RRIRYRPPRLPRPRPRPPQQPRP | 0.0729
34 | RRIRGRPPRLPRPRPRPWQKPRP | 0.09
35 | RRIRGRPPRLPRPRPRPCDLPRP | 0.0268
36 | RRIRNRPPRLPRPRPRPANGPRP | 0.0343
37 | RRIRDRPPRLPRPRPRPLKCPRP | 0.055
38 | RRIRHRPPRLPRPRPRPEKDPRP | -0.0422
39 | RRIRPRPPRLPRPRPRPFHNPRP | -0.541
40 | RRIRSRPPRLPRPRPRPHSVPRP | -0.036
41 | RRIRIRPPRLPRPRPRPRKDPRP | -0.387
42 | RRIRQRPPRLPRPRPRPIGIPRP | -0.245
43 | RRIRGRPPRLPRPRPRPNFWPRP | 0.544
44 | RRIRERPPRLPRPRPRPKRIPRP | 0.103
45 | RRIRQRPPRLPRPRPRPGTSPRP | -0.523
46 | RRIRWRPPRLPRPRPRPKGPPRP | 3.65
47 | RRIRIRPPRLPRPRPRPIHMPRP | -0.379
48 | RRIRGRPPRLPRPRPRPWALPRP | -0.115
49 | RRIRSRPPRLPRPRPRPMNYPRP | -0.162
50 | RRIRIRPPRLPRPRPRPIWRPRP | 0.529

Row | Sequence | shrunken log2 fold change
51 | RRIRLRPPRLPRPRPRPAYMPRP | -0.275
52 | RRIRARPPRLPRPRPRPMEAPRP | -0.047
53 | RRIRFRPPRLPRPRPRPNAPPRP | 0.0925
54 | RRIRTRPPRLPRPRPRPRSYPRP | 0.0838
55 | RRIRGRPPRLPRPRPRPAFSPRP | 0.0169
56 | RRIRARPPRLPRPRPRPNGMPRP | -0.0336
57 | RRIRSRPPRLPRPRPRPHTVPRP | -0.218
58 | RRIRGRPPRLPRPRPRPSIRPRP | 0.417
59 | RRIRSRPPRLPRPRPRPMARPRP | 0.101
60 | RRIRYRPPRLPRPRPRPMQPPRP | -0.0124
61 | RRIRYRPPRLPRPRPRPATDPRP | -0.327
62 | RRIRERPPRLPRPRPRPWHEPRP | -0.0932
63 | RRIRIRPPRLPRPRPRPTIWPRP | -0.157
64 | RRIRWRPPRLPRPRPRPNHRPRP | -0.0538
65 | RRIRSRPPRLPRPRPRPKIEPRP | -0.0199
66 | RRIRIRPPRLPRPRPRPDHNPRP | -0.919
67 | RRIRLRPPRLPRPRPRPVIDPRP | -0.182
68 | RRIRHRPPRLPRPRPRPHTMPRP | -0.0685
69 | RRIRVRPPRLPRPRPRPSIDPRP | -0.455
70 | RRIRWRPPRLPRPRPRPQNAPRP | -0.182
71 | RRIRFRPPRLPRPRPRPDLRPRP | -0.108
72 | RRIRWRPPRLPRPRPRPLEIPRP | 0.299
73 | RRIRCRPPRLPRPRPRPHGRPRP | 0.0979
74 | RRIRQRPPRLPRPRPRPWWDPRP | 0.00367
75 | RRIRSRPPRLPRPRPRPGYHPRP | -0.512

Row | Sequence | shrunken log2 fold change
76 | RRIRMRPPRLPRPRPRPHKKPRP | 0.0772
77 | RRIRNRPPRLPRPRPRPHNFPRP | -0.436
78 | RRIRNRPPRLPRPRPRPIVEPRP | 0.0466
79 | RRIRMRPPRLPRPRPRPPEAPRP | 0.779
80 | RRIRTRPPRLPRPRPRPGEQPRP | 0.15
81 | RRIRSRPPRLPRPRPRPEWQPRP | 0.254
82 | RRIRGRPPRLPRPRPRPFVEPRP | 0.236
83 | RRIRTRPPRLPRPRPRPRDFPRP | 0.0849
84 | RRIRIRPPRLPRPRPRPCHMPRP | -0.188
85 | RRIRVRPPRLPRPRPRPLTPPRP | 0.758
86 | RRIRHRPPRLPRPRPRPIKCPRP | -0.87
87 | RRIRMRPPRLPRPRPRPINSPRP | -0.142
88 | RRIRRRPPRLPRPRPRPACIPRP | 0.542
89 | RRIRQRPPRLPRPRPRPMGDPRP | 0.0563
90 | RRIRDRPPRLPRPRPRPLQMPRP | 0.167
91 | RRIRPRPPRLPRPRPRPIATPRP | -0.159
92 | RRIRMRPPRLPRPRPRPMTDPRP | 0.0744
93 | RRIRFRPPRLPRPRPRPERAPRP | 0.611
94 | RRIRHRPPRLPRPRPRPGMHPRP | -0.01
95 | RRIRIRPPRLPRPRPRPECFPRP | 0.042
96 | RRIRWRPPRLPRPRPRPVRGPRP | 0.538
97 | RRIRHRPPRLPRPRPRPQRMPRP | -0.16
98 | RRIRPRPPRLPRPRPRPDHLPRP | -0.172
99 | RRIRPRPPRLPRPRPRPNNPPRP | -0.415
100 | RRIRARPPRLPRPRPRPRMQPRP | 0.637

Row | Sequence | shrunken log2 fold change
101 | RRIRWRPPRLPRPRPRPKANPRP | 0.51
102 | RRIRRRPPRLPRPRPRPMYCPRP | -0.574
103 | RRIRARPPRLPRPRPRPEIFPRP | 0.273
104 | RRIRPRPPRLPRPRPRPTDMPRP | 0.157
105 | RRIRVRPPRLPRPRPRPNRLPRP | 0.0105
106 | RRIRQRPPRLPRPRPRPISEPRP | 0.0446
107 | RRIRVRPPRLPRPRPRPAQGPRP | 0.00544
108 | RRIRSRPPRLPRPRPRPLGPPRP | 0.0761
109 | RRIRRRPPRLPRPRPRPEHAPRP | 0.686
110 | RRIRDRPPRLPRPRPRPRLVPRP | 0.314
111 | RRIRYRPPRLPRPRPRPEPVPRP | -0.00973
112 | RRIRERPPRLPRPRPRPYITPRP | -1.07
113 | RRIRLRPPRLPRPRPRPKSRPRP | -0.176
114 | RRIRQRPPRLPRPRPRPAPIPRP | 0.34
115 | RRIRTRPPRLPRPRPRPVCHPRP | -0.173
116 | RRIRSRPPRLPRPRPRPICFPRP | -0.15
117 | RRIRDRPPRLPRPRPRPKWGPRP | 0.105
118 | RRIRVRPPRLPRPRPRPDVCPRP | 0.0951
119 | RRIRCRPPRLPRPRPRPPGTPRP | 0.519
120 | RRIRNRPPRLPRPRPRPDSPPRP | -0.0758
121 | RRIRIRPPRLPRPRPRPTLNPRP | -0.181
122 | RRIRIRPPRLPRPRPRPYGMPRP | -0.354
123 | RRIRSRPPRLPRPRPRPVYNPRP | -0.974
124 | RRIRTRPPRLPRPRPRPGKLPRP | -0.394
125 | RRIRKRPPRLPRPRPRPAPPPRP | 1.04

Row | Sequence | shrunken log2 fold change
126 | RRIRWRPPRLPRPRPRPPFMPRP | 0.0466
127 | RRIRWRPPRLPRPRPRPWKSPRP | 0.0574
128 | RRIRWRPPRLPRPRPRPGIHPRP | 0.11
129 | RRIRTRPPRLPRPRPRPCLWPRP | -0.0838
130 | RRIRIRPPRLPRPRPRPQRFPRP | -0.231
131 | RRIRERPPRLPRPRPRPWKSPRP | -0.0163
132 | RRIRERPPRLPRPRPRPYSEPRP | -0.157
133 | RRIRKRPPRLPRPRPRPTHWPRP | 0.796
134 | RRIRTRPPRLPRPRPRPICQPRP | -0.0148
135 | RRIRMRPPRLPRPRPRPEKDPRP | 2.62
136 | RRIRIRPPRLPRPRPRPSRSPRP | -0.605
137 | RRIRQRPPRLPRPRPRPNAMPRP | -0.226
138 | RRIRYRPPRLPRPRPRPCSWPRP | -0.272
139 | RRIRLRPPRLPRPRPRPIIIPRP | -0.302
140 | RRIRDRPPRLPRPRPRPCTAPRP | 0.00714
141 | RRIRPRPPRLPRPRPRPPSAPRP | 1.05
142 | RRIRSRPPRLPRPRPRPQDKPRP | -0.0231
143 | RRIRRRPPRLPRPRPRPKYNPRP | -0.384
144 | RRIRERPPRLPRPRPRPPFAPRP | 0.403
145 | RRIRVRPPRLPRPRPRPCYQPRP | -0.142
146 | RRIRTRPPRLPRPRPRPYQIPRP | -0.0573
147 | RRIRWRPPRLPRPRPRPASKPRP | 0.294
148 | RRIRNRPPRLPRPRPRPMGMPRP | -0.0761
149 | RRIRPRPPRLPRPRPRPSSMPRP | -0.29
150 | RRIRGRPPRLPRPRPRPHRFPRP | 0.101
